± gives the standard deviation of the averaged measurements.
Experiment: total protein half-life in vivo (active degradation + dilution); higher = more stable protein
[1] = E. coli NCM3722 delta-clpP delta-lon delta-hslV, growth: N-lim chemostat, doubling time 6 h
[2] = E. coli NCM3722 delta-clpP, growth: N-lim chemostat, doubling time 6 h
[3] = E. coli NCM3722 delta-hslV, growth: N-lim chemostat, doubling time 6 h
[4] = E. coli NCM3722 delta-lon, growth: N-lim chemostat, doubling time 6 h
[5] = E. coli NCM3722 delta-smpB, growth: N-lim chemostat, doubling time 6 h
[6] = wild type E. coli NCM3722, growth: C-lim chemostat, doubling time 3 h
[7] = wild type E. coli NCM3722, growth: C-lim chemostat, doubling time 6 h
[8] = wild type E. coli NCM3722, growth: C-lim chemostat, doubling time 12 h
[9] = wild type E. coli NCM3722, growth: N-lim chemostat, doubling time 6 h
[10] = wild type E. coli NCM3722, growth: N-lim chemostat, doubling time 12 h
[11] = wild type E. coli NCM3722, growth: P-lim chemostat, doubling time 6 h
[12] = wild type E. coli NCM3722, growth: P-lim chemostat, doubling time 12 h

| Sequence | total protein half-life in vivo [1] [h] | total protein half-life in vivo [2] [h] | total protein half-life in vivo [3] [h] | total protein half-life in vivo [4] [h] | total protein half-life in vivo [5] [h] | total protein half-life in vivo [6] [h] | total protein half-life in vivo [7] [h] | total protein half-life in vivo [8] [h] | total protein half-life in vivo [9] [h] | total protein half-life in vivo [10] [h] | total protein half-life in vivo [11] [h] | total protein half-life in vivo [12] [h] |
| --- | --- | --- | --- | --- | --- | --- | --- | --- | --- | --- | --- | --- |
| MSDRIDRDVINALIAGHFADPFSVLGMHKTTAGLEVRALLPDATDVWVIEPKTGRKLAKLECLDSRGFFSGVIPRRKNFFRYQLAVVWHGQQNLIDDPYRFGPLIQEMDAWLLSEGTHLRPYETLGAHADTMDGVTGTRFSVWAPNARRVSVVGQFNYWDGRRHPMRLRKESGIWELFIPGAHNGQLYKYEMIDANGNLRLKSDPYAFEAQMRPETASLICGLPEKVVQTEERKKANQFDAPISIYEVHLGSWRRHTDNNFWLSYRELADQLVPYAKWMGFTHLELLPINEHPFDGSWGYQPTGLYAPTRRFGTRDDFRYFIDAAHAAGLNVILDWVPGHFPTDDFALAEFDGTNLYEHSDPREGYHQDWNTLIYNYGRREVSNFLVGNALYWIERFGIDALRVDAVASMIYRDYSRKEGEWIPNEFGGRENLEAIEFLRNTNRILGEQVSGAVTMAEESTDFPGVSRPQDMGGLGFWYKWNLGWMHDTLDYMKLDPVYRQYHHDKLTFGILYNYTENFVLPLSHDEVVHGKKSILDRMPGDAWQKFANLRAYYGWMWAFPGKKLLFMGNEFAQGREWNHDASLDWHLLEGGDNWHHGVQRLVRDLNLTYRHHKAMHELDFDPYGFEWLVVDDKERSVLIFVRRDKEGNEIIVASNFTPVPRHDYRFGINQPGKWREILNTDSMHYHGSNAGNGGTVHSDEIASHGRQHSLSLTLPPLATIWLVREAE | 6.52 ± 0.61 | 5.72 ± 0.24 | 6.65 ± 0.44 | 6.1 ± 0.46 | 6.35 ± 0.16 | 2.98 ± 0.15 | 6.06 ± 0.42 | 13.2 ± 0.43 | 5.95 ± 0.2 | 12.2 ± 2.1 | 6.35 ± 0.33 | 12.1 ± 1.9 |
| MIGRLLRGGFMTAIYAYLYIPIIILIVNSFNSSRFGINWQGFTTKWYSLLMNNDSLLQAAQHSLTMAVFSATFATLIGSLTAVALYRYRFRGKPFVSGMLFVVMMSPDIVMAISLLVLFMLLGIQLGFWSLLFSHITFCLPFVVVTVYSRLKGFDVRMLEAAKDLGASEFTILRKIILPLAMPAVAAGWVLSFTLSMDDVVVSSFVTGPSYEILPLKIYSMVKVGVSPEVNALATILLVLSLVMVIASQLIARDKTKGNTGDVK [P0AFK6] | 5.93 | 6.54 | 5.12 | 5.66 | 5.65 ± 0.13 | 3.13 ± 0.76 |  | 14 | 6.23 ± 0.36 | 13.3 ± 0.85 | 6.269 ± 0.021 | 10.5 ± 2.2 |
| MSNQEPATILLIDDHPMLRTGVKQLISMAPDITVVGEASNGEQGIELAESLDPDLILLDLNMPGMNGLETLDKLREKSLSGRIVVFSVSNHEEDVVTALKRGADGYLLKDMEPEDLLKALHQAAAGEMVLSEALTPVLAASLRANRATTERDVNQLTPRERDILKLIAQGLPNKMIARRLDITESTVKVHVKHMLKKMKLKSRVEAAVWVHQERIF [P0AF28] | 6.09 ± 2.1 | 5.77 ± 2.1 | 4.05 ± 0.41 | 4.81 ± 0.33 | 4.166 ± 0.011 | 3.06 ± 0.19 | 5.03 ± 0.15 | 10.1 ± 1.3 | 4.19 ± 0.087 | 7.26 ± 0.29 | 5.39 ± 0.99 | 9.74 ± 1.3 |
| MATLTAKNLAKAYKGRRVVEDVSLTVNSGEIVGLLGPNGAGKTTTFYMVVGIVPRDAGNIIIDDDDISLLPLHARARRGIGYLPQEASIFRRLSVYDNLMAVLQIRDDLSAEQREDRANELMEEFHIEHLRDSMGQSLSGGERRRVEIARALAANPKFILLDEPFAGVDPISVIDIKRIIEHLRDSGLGVLITDHNVRETLAVCERAYIVSQGHLIAHGTPTEILQDEHVKRVYLGEDFRL [P0A9V1] | 6.21 ± 0.31 | 6.33 ± 0.48 | 5.919 ± 0.031 | 6.05 ± 0.57 | 5.51 ± 0.55 | 2.811 ± 0.004 | 6.061 ± 0.04 | 11.2 ± 0.66 | 5.52 ± 0.24 | 13.3 ± 0.87 | 5.46 ± 0.24 | 12.4 ± 0.82 |
| MNIVVLISGNGSNLQAIIDACKTNKIKGTVRAVFSNKADAFGLERARQAGIATHTLIASAFDSREAYDRELIHEIDMYAPDVVVLAGFMRILSPAFVSHYAGRLLNIHPSLLPKYPGLHTHRQALENGDEEHGTSVHFVTDELDGGPVILQAKVPVFAGDSEDDITARVQTQEHAIYPLVISWFADGRLKMHENAAWLDGQRLPPQGYAADE | 4.883 ± 0.024 | 4.97 ± 0.32 | 5.15 ± 1.4 | 4.68 ± 0.53 | 4.39 ± 0.18 | 2.94 ± 0.6 | 5.63 ± 2.2 |  | 4.49 ± 0.41 | 9.87 ± 3.2 | 5.58 ± 0.33 |  |
